Experimental data published in paper PMC6699766 (Nature plants, 2019).

Biological target: the molecule itself
Experiment: negative stain TEM

B1: IsiA protein of Synechocystis sp. PCC 6803 (natural protein)
chain: not shown
For B1, the “stoichiometry N” value was 18.
